Data: PMC5749897 (PLoS Pathogens, 2017)

Target: T1, wild-type HCV E1E2 (genotype 1a, strain H77) expression construct with C-terminal V5 epitope tag (Hepatitis C virus genotype 1a, strain …, strain)
T1 construct: also called wild-type E1E2; E1E2 complex; source: HEK-293T, transfected, in fixed and permeabilised cells; not shown: V5, C-terminal, kept
Assay: flow cytometry on cells; E1E2 library clones in HEK-293T, 22 h, fixed in 4% paraformaldehyde, permeabilised with 0.1% saponin; stained with mAb (0.33 to 2.0 ug/ml) or CD81-LEL-Fc, Alexa Fluor 488 secondary antibody; Intellicyt HTFC; signal as percent of wild-type E1E2 after subtraction of mock
Details: one partner purified

B1: monoclonal antibody AR3C (antibody, V domains shown)
VH: VQLLEQSGAEVKKPGSSVKVSCETSGGTFDNYALNWVRQAPGQGLEWIGGVVPLFGTTRNAQKFQGRVTISDDKSTGTGHMELRSLRSEDTAVYYCVRSVTPRYCGGGFCYGEFDYWGQGTLVTVSS
VL: EIELTQSPATLSVSPGERATLSCRASQSVSSNLAWYQQKPGQAPRLLIYGASTRATGIPARFSGSGSGTEFTLTVSRLEPEDSAVYFCQQYYRSPLTFGGGTKVEIK
notes: also called mAb AR3C
binding result: binds
